Here are results for 3 proteins from publication PMC3010076 (The Journal of Cell Biology, 2010).

B1: MBP-Myo1-tail-TD2Δ (domain or fragment, S. cerevisiae, UniProt P08964 856-1928, looked up)
chain: SSNDMTRTKKFNEQINKLKNDLQEMESKKKFLEEKNQKTVNELENTQDLLNQEKENLRKNESLLNRVKTSSETLQKQFDDLVSEKDEISREKLEVAQNLEEAHQKIQGLQETIREREATLEKLHSKNNELIKQISDLNCDISKEQSSQSLIKESKLKLENEIKRLKDVINSKEEEIKSFNDKLSSSEEDLDIKLVTLEKNCNIAMSRLQSLVTENSDLRSKNENFKKEKAALNNQLKNKESELLKMKEKIDNHKKELATFSKQRDDAVSEHGKITAELKETRIQLTEYKSNYQKIKEEYSNFQRETKEQEQKKRNSLVESLNDSKIKELEARLSQEISLNQYLNKRISGNSVETNISSTRRSTSYSDDVGDIIKNRDSISKYEEEIRYYKLENYKLQEILNESNGKLSQLTLDLRQSKSKEALLSEQLDRLQKDLESTERQKELLSSTIKQQKQQFENCMDDLQGNELRLREHIHALKQAEEDVKNMASIIEKLKTQNKQKEKLIWEREMERNDSDMQLQETLLELKRVQDVKKILSDDLAHLKERLSAVEDRSQYTDEINRLKEELNCSLKAETNLKKEFATLKYKLETSTNDSEAKISDLLKQLDHYTKVVEMLNNEKDAISLAEKELYQKYEALNTECESLKGKIVSLTKIKQELESDLNQKTDALQISNAALSSSTQKNKEITEKIKYLEETLQLQMEQNSRNGELVKTLQASCNGYKDKFDDEKQKNIDLYEENQTLQKLNTDLQLQLKNLHERLSDTTEKNAWLSKIHELENMVSLETDLKYEEMKKNKSLERAVEELQTKNSQQTDVIELANKNRSEFEEATLKYEAQISDLEKYISQQELEMKKSIRDNSSYRDKVQEMAQEIEFWKSRYESTMIGSKNIDSNNAQSKIFS
B2: C-terminally TAP-tagged Myo1 with a deletion of the TD2 region (natural protein, S. cerevisiae, UniProt P08964 1-1928, looked up)
chain: MTGGQSCSSNMIVWIPDEKEVFVKGELMSTDINKNKFTGQEEQIGIVHPLDSTEVSNLVQVRISDVFPVNPSTFDKVENMSELTHLNEPSVLYNLEKRYDCDLIYTYSGLFLVAINPYHNLNLYSEDHINLYHNKHNRLSKSRLDENSHEKLPPHIFAIAEEAYENLLSEGKDQSILVTGESGAGKTENTKKILQYLASITSGSPSNIAPVSGSSIVESFEMKILQSNPILESFGNAQTVRNNNSSRFGKFIKIEFNEHGMINGAHIEWYLLEKSRIVHQNSKERNYHIFYQLLSGLDDSELKNLRLKSRNVKDYKILSNSNQDIIPGINDVENFKELLSALNIIGFSKDQIRWIFQVVAIILLIGNIEFVSDRAEQASFKNDVSAICSNLGVDEKDFQTAILRPRSKAGKEWVSQSKNSQQAKFILNALSRNLYERLFGYIVDMINKNLDHGSATLNYIGLLDIAGFEIFENNSFEQLCINYTNEKLQQFFNNHMFVLEQSEYLKENIQWDYIDYGKDLQLTIDLIESKGPPTGVLPLLDEEAVLPKSTDESFYSKLISTWDQNSSKFKRSRLKNGFILKHYAGDVEYTVEGWLSKNKDPLNDNLLSLLSSSQNDIISKLFQPEGEKSSSAGVEANISNQEVKKSARTSTFKTTSSRHREQQITLLNQLASTHPHFVRCIIPNNVKKVKTFNRRLILDQLRCNGVLEGIRLAREGYPNRIAFQEFFQRYRILYPENSTTTTFSSKLKASTKQNCEFLLTSLQLDTKVYKIGNTKLFFKAGVLADLEKQKDVKLNNIMIKLTATIRGYTVRKEITYHLQKLKKTRVIGNTFRLYNRLVKEDPWFNLFIRIKPLLTSSNDMTRTKKFNEQINKLKNDLQEMESKKKFLEEKNQKTVNELENTQDLLNQEKENLRKNESLLNRVKTSSETLQKQFDDLVSEKDEISREKLEVAQNLEEAHQKIQGLQETIREREATLEKLHSKNNELIKQISDLNCDISKEQSSQSLIKESKLKLENEIKRLKDVINSKEEEIKSFNDKLSSSEEDLDIKLVTLEKNCNIAMSRLQSLVTENSDLRSKNENFKKEKAALNNQLKNKESELLKMKEKIDNHKKELATFSKQRDDAVSEHGKITAELKETRIQLTEYKSNYQKIKEEYSNFQRETKEQEQKKRNSLVESLNDSKIKELEARLSQEISLNQYLNKRISGNSVETNISSTRRSTSYSDDVGDIIKNRDSISKYEEEIRYYKLENYKLQEILNESNGKLSQLTLDLRQSKSKEALLSEQLDRLQKDLESTERQKELLSSTIKQQKQQFENCMDDLQGNELRLREHIHALKQAEEDVKNMASIIEKLKTQNKQKEKLIWEREMERNDSDMQLQETLLELKRVQDVKKILSDDLAHLKERLSAVEDRSQYTDEINRLKEELNCSLKAETNLKKEFATLKYKLETSTNDSEAKISDLLKQLDHYTKVVEMLNNEKDAISLAEKELYQKYEALNTECESLKGKIVSLTKIKQELESDLNQKTDALQISNAALSSSTQKNKEITEKIKYLEETLQLQMEQNSRNGELVKTLQASCNGYKDKFDDEKQKNIDLYEENQTLQKLNTDLQLQLKNLHERLSDTTEKNAWLSKIHELENMVSLETDLKYEEMKKNKSLERAVEELQTKNSQQTDVIELANKNRSEFEEATLKYEAQISDLEKYISQQELEMKKSIRDNSSYRDKVQEMAQEIEFWKSRYESTMIGSKNIDSNNAQSKIFS
B3: C-terminally TAP-tagged full-length Myo1 (natural protein, S. cerevisiae, UniProt P08964 1-1928, looked up)
chain: MTGGQSCSSNMIVWIPDEKEVFVKGELMSTDINKNKFTGQEEQIGIVHPLDSTEVSNLVQVRISDVFPVNPSTFDKVENMSELTHLNEPSVLYNLEKRYDCDLIYTYSGLFLVAINPYHNLNLYSEDHINLYHNKHNRLSKSRLDENSHEKLPPHIFAIAEEAYENLLSEGKDQSILVTGESGAGKTENTKKILQYLASITSGSPSNIAPVSGSSIVESFEMKILQSNPILESFGNAQTVRNNNSSRFGKFIKIEFNEHGMINGAHIEWYLLEKSRIVHQNSKERNYHIFYQLLSGLDDSELKNLRLKSRNVKDYKILSNSNQDIIPGINDVENFKELLSALNIIGFSKDQIRWIFQVVAIILLIGNIEFVSDRAEQASFKNDVSAICSNLGVDEKDFQTAILRPRSKAGKEWVSQSKNSQQAKFILNALSRNLYERLFGYIVDMINKNLDHGSATLNYIGLLDIAGFEIFENNSFEQLCINYTNEKLQQFFNNHMFVLEQSEYLKENIQWDYIDYGKDLQLTIDLIESKGPPTGVLPLLDEEAVLPKSTDESFYSKLISTWDQNSSKFKRSRLKNGFILKHYAGDVEYTVEGWLSKNKDPLNDNLLSLLSSSQNDIISKLFQPEGEKSSSAGVEANISNQEVKKSARTSTFKTTSSRHREQQITLLNQLASTHPHFVRCIIPNNVKKVKTFNRRLILDQLRCNGVLEGIRLAREGYPNRIAFQEFFQRYRILYPENSTTTTFSSKLKASTKQNCEFLLTSLQLDTKVYKIGNTKLFFKAGVLADLEKQKDVKLNNIMIKLTATIRGYTVRKEITYHLQKLKKTRVIGNTFRLYNRLVKEDPWFNLFIRIKPLLTSSNDMTRTKKFNEQINKLKNDLQEMESKKKFLEEKNQKTVNELENTQDLLNQEKENLRKNESLLNRVKTSSETLQKQFDDLVSEKDEISREKLEVAQNLEEAHQKIQGLQETIREREATLEKLHSKNNELIKQISDLNCDISKEQSSQSLIKESKLKLENEIKRLKDVINSKEEEIKSFNDKLSSSEEDLDIKLVTLEKNCNIAMSRLQSLVTENSDLRSKNENFKKEKAALNNQLKNKESELLKMKEKIDNHKKELATFSKQRDDAVSEHGKITAELKETRIQLTEYKSNYQKIKEEYSNFQRETKEQEQKKRNSLVESLNDSKIKELEARLSQEISLNQYLNKRISGNSVETNISSTRRSTSYSDDPLDKEDIIKKYYDLQLAFTEITRNLENEIEEKKNLISRLRFTETRLASSSFEDQKIKAQMKKLKKLIQDMDPSIPLDSILNEPLDNCPDKESDINKLMLEVDYLKRQLDIETRAHYDAENAISALHSKFRKIQGESSLSSSDIYKLKFEASEERVKSLEDKLKTMPLRDRTNLPVGDIIKNRDSISKYEEEIRYYKLENYKLQEILNESNGKLSQLTLDLRQSKSKEALLSEQLDRLQKDLESTERQKELLSSTIKQQKQQFENCMDDLQGNELRLREHIHALKQAEEDVKNMASIIEKLKTQNKQKEKLIWEREMERNDSDMQLQETLLELKRVQDVKKILSDDLAHLKERLSAVEDRSQYTDEINRLKEELNCSLKAETNLKKEFATLKYKLETSTNDSEAKISDLLKQLDHYTKVVEMLNNEKDAISLAEKELYQKYEALNTECESLKGKIVSLTKIKQELESDLNQKTDALQISNAALSSSTQKNKEITEKIKYLEETLQLQMEQNSRNGELVKTLQASCNGYKDKFDDEKQKNIDLYEENQTLQKLNTDLQLQLKNLHERLSDTTEKNAWLSKIHELENMVSLETDLKYEEMKKNKSLERAVEELQTKNSQQTDVIELANKNRSEFEEATLKYEAQISDLEKYISQQELEMKKSIRDNSSYRDKVQEMAQEIEFWKSRYESTMIGSKNIDSNNAQSKIFS

This data set concerns the molecule itself. The data set is described as follows: rotary-shadowing EM.
In the case of B1, the “stoichiometry N” value was determined as 2. For B2 the value was 2; for B3, 2.

As usually defined, the stoichiometry N is the number of molecules, sites or subunits per partner or assembly.
